The results in this text go back to paper PMC12077210, “Di-HAMP domains of a cytoplasmic chemoreceptor modulate nucleoid array formation and downstream signaling” (mBio, 2024).

Series [1] concerns the target FrzCD^ΔMA (Myxococcus xanthus) (UniProt P43500). In words: SEC-MALS; no DNA; Superdex 200 Increase 10/300, 50 mM NaCl, 50 mM Tris pH 8.0, about 25°C; 100 μL injected at 45 and 150 μM (FrzCD), 70 and 200 μM (ΔMA), 25 μM (ΔH1ΔH2), 25 and 65 μM (ΔH2), 25 μM (ΔH1).
The target is the same in series [2]. Nature of the series: SEC-MALS; with 35 bp DNA in the injected sample: 70 μM FrzCD with 30 μM DNA; 200 μM FrzCD with 100 μM DNA; 200 μM ΔMA with 100 μM DNA; 100 μM ΔH2 with 50 μM DNA. For orientation: Size exclusion chromatography separates by hydrodynamic size, large species first.
The target in series [3] is FrzCD^ΔH1ΔH2 (Myxococcus xanthus) (UniProt P43500). In words: SEC-MALS; no DNA; Superdex 200 Increase 10/300, 50 mM NaCl, 50 mM Tris pH 8.0, about 25°C; 100 μL injected at 45 and 150 μM (FrzCD), 70 and 200 μM (ΔMA), 25 μM (ΔH1ΔH2), 25 and 65 μM (ΔH2), 25 μM (ΔH1).
In series [4] the target is FrzCD^ΔH2 (Myxococcus xanthus) (UniProt P43500). The series is described as above.
The next series has as its target T1, His6-FrzCD (BLI) (Myxococcus xanthus, UniProt P43500 1-417).
T1 sequence: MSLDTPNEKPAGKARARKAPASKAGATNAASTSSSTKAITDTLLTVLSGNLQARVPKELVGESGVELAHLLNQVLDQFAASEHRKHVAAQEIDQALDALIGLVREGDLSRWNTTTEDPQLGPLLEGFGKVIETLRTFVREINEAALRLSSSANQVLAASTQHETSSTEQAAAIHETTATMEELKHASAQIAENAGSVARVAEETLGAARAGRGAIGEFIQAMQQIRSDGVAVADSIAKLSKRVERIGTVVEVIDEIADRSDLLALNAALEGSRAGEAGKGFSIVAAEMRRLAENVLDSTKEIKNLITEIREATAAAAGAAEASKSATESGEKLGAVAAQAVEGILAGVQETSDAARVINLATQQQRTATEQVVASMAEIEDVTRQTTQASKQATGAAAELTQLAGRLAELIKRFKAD
In words: BLI; EMSA: 50 mM Tris pH 7.4, 50 mM NaCl, 1 mM DTT, 10% glycerol, 25 C, 30 min, 0.5-2 uM DNA; BLI: 10 mM Tris pH 7.4, 150 mM NaCl, 25 C, 5 nM DNA. The settings on record: protein: recombinant; tags: N-terminal His6 (pETphos); label: 5' biotin on forward strand; blunt.

The target of a further series is T2, His6-FrzCDΔH1ΔH2 (BLI) (Myxococcus xanthus, UniProt P43500 1-417, del31-136).
T2 sequence: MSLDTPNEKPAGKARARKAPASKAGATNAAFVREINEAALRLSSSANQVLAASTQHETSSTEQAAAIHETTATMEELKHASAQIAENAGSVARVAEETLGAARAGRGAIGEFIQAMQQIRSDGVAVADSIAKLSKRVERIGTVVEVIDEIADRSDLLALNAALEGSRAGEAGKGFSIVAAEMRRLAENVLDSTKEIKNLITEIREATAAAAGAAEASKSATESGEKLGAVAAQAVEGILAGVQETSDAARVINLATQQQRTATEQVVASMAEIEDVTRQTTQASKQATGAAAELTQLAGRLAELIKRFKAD
The description is as above. The note with it: protein: recombinant; tags: N-terminal His6 (pETphos); label: 5' biotin on forward strand; blunt.

The target of the next series is T3, His6-FrzCDΔH2 (BLI) (Myxococcus xanthus, UniProt P43500 1-417, del84-136).
T3 sequence: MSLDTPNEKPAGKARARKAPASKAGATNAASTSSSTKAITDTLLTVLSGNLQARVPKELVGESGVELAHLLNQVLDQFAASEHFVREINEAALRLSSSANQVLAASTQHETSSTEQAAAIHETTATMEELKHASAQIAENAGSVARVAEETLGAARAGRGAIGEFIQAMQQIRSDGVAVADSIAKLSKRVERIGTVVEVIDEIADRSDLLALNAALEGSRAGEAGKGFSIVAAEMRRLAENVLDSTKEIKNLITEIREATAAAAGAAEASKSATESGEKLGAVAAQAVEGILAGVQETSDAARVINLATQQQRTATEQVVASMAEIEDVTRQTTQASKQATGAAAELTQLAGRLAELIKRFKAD
The series is described as above. The note with it: protein: recombinant; tags: N-terminal His6 (pETphos); label: 5' biotin on forward strand; blunt.

Series [5] deals with the molecule itself. In words: SEC-MALS; no DNA; Superdex 200 Increase 10/300, 50 mM NaCl, 50 mM Tris pH 8.0, about 25°C; 100 μL injected at 45 and 150 μM (FrzCD), 70 and 200 μM (ΔMA), 25 μM (ΔH1ΔH2), 25 and 65 μM (ΔH2), 25 μM (ΔH1).
The target in series [6] is T4, FrzCD (EMSA/SEC-MALS) (Myxococcus xanthus, UniProt P43500 1-417).
T4 sequence: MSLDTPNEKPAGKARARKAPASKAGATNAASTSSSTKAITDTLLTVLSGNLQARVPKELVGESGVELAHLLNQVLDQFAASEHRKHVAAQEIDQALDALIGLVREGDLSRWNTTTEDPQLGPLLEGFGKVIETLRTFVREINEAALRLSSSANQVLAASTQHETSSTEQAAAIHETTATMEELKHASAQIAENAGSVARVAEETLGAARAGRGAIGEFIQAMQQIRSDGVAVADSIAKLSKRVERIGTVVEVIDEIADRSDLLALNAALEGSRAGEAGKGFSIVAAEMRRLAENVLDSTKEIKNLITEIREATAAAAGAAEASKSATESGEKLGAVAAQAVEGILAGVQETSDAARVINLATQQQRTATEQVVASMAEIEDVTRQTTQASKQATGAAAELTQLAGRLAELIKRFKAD
In words: SEC-MALS; high-order oligomers at 200 uM protein, 100 uM DNA; EMSA: 50 mM Tris pH 7.4, 50 mM NaCl, 1 mM DTT, 10% glycerol, 25 C, 30 min, 0.5-2 uM DNA; BLI: 10 mM Tris pH 7.4, 150 mM NaCl, 25 C, 5 nM DNA. The note with it: protein: recombinant; tags: C-terminal His6 (pHis17); chain copies: 2; blunt.

The next series deals with T5, FrzCDΔH2 (EMSA/SEC-MALS) (Myxococcus xanthus, UniProt P43500 1-417, del84-136).
T5 sequence: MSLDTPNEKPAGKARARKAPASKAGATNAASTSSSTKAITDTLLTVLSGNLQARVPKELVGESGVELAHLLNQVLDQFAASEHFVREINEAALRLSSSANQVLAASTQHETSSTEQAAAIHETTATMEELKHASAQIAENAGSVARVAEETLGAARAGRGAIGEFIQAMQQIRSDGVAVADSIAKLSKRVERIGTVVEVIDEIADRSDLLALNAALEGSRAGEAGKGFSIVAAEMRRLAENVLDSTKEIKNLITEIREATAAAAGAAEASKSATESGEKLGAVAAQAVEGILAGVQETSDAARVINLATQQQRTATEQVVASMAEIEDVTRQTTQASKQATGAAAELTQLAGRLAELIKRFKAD
In words: EMSA; EMSA: 50 mM Tris pH 7.4, 50 mM NaCl, 1 mM DTT, 10% glycerol, 25 C, 30 min, 0.5-2 uM DNA; BLI: 10 mM Tris pH 7.4, 150 mM NaCl, 25 C, 5 nM DNA. The settings on record: protein: recombinant; tags: C-terminal His6 (pHis17); blunt. A general note: In EMSA bound probe runs differently from free probe, usually more slowly.

Another series deals with T6, FrzCDΔH1ΔH2 (EMSA) (Myxococcus xanthus, UniProt P43500 1-417, del32-136).
T6 sequence: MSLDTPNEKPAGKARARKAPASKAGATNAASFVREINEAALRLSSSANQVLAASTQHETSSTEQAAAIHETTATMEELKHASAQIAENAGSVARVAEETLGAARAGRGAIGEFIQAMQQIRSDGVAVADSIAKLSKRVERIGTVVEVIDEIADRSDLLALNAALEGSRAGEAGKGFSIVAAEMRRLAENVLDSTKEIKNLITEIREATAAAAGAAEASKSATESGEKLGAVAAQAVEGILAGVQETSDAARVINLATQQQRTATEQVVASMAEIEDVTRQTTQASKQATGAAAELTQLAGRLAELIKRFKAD
The description is as above. The note with it: protein: recombinant; tags: C-terminal His6 (pHis17); blunt.

A further series deals with T7, FrzCDΔH1 (EMSA) (Myxococcus xanthus, UniProt P43500 1-417, del32-83).
T7 sequence: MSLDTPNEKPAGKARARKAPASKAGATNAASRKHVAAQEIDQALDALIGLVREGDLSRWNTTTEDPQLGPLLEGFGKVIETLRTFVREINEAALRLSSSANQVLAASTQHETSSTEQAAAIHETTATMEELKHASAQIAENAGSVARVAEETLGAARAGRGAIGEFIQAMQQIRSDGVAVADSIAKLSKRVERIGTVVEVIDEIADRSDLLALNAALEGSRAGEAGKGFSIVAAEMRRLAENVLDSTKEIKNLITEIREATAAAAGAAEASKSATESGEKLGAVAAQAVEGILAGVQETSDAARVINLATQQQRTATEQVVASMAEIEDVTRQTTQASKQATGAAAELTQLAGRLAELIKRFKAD
The description is as above. The note with it: protein: recombinant; tags: C-terminal His6 (pHis17); blunt.

Series [7] has as its target T4, FrzCD (EMSA/SEC-MALS). The description is as above. The settings on record: protein: recombinant, tags: C-terminal His6 (pHis17), chain copies: 2.

A word on the stoichiometry N: it is the number of molecules, sites or subunits per partner or assembly. On to “FrzCD^ΔMA (from UniProt P43500 1-136) (domain or fragment)”, for which the stoichiometry N in series [1] and in [2] was 2 throughout.
In turn, “FrzCD^ΔH1ΔH2 (from UniProt P43500 1-417) (receptor)” showed a stoichiometry N in series [3] of 4.
“FrzCD^ΔH2 (from UniProt P43500 1-417) (receptor)” gave a stoichiometry N in series [4] of 4.

B1: 178 bp DNA (dsDNA)
DNA 1: GGATCGCATCTGCCTACATCCCCAGCTCCCGGTCGGTCCGCTCGGAACCTAGCCCGGGTCAAAGACCCGGGGTCTATGTTGACCCATTTGGTGGGGATGGGTCTAATTGGACCTGGCGTTTTTTCGCGCCATGGAAATGTCAAGGCCCGTGATTCCAGACTGTTGGGCAGGGAGTT
DNA 2: AACTCCCTGCCCAACAGTCTGGAATCACGGGCCTTGACATTTCCATGGCGCGAAAAAACGCCAGGTCCAATTAGACCCATCCCCACCAAATGGGTCAACATAGACCCCGGGTCTTTGACCCGGGCTAGGTTCCGAGCGGACCGACCGGGAGCTGGGGATGTAGGCAGATGCGATCC
As usually defined, the Kd is a measure of binding affinity in units of concentration. Regarding B1, the Kd turned out to be 650 nM with His6-FrzCD (BLI), 210 nM with His6-FrzCDΔH1ΔH2 (BLI) and 1730 nM with His6-FrzCDΔH2 (BLI).

B2: FrzCD^ΔH1 (receptor, Myxococcus xanthus, UniProt P43500 1-417, looked up)
chain: MSLDTPNEKPAGKARARKAPASKAGATNAARKHVAAQEIDQALDALIGLVREGDLSRWNTTTEDPQLGPLLEGFGKVIETLRTFVREINEAALRLSSSANQVLAASTQHETSSTEQAAAIHETTATMEELKHASAQIAENAGSVARVAEETLGAARAGRGAIGEFIQAMQQIRSDGVAVADSIAKLSKRVERIGTVVEVIDEIADRSDLLALNAALEGSRAGEAGKGFSIVAAEMRRLAENVLDSTKEIKNLITEIREATAAAAGAAEASKSATESGEKLGAVAAQAVEGILAGVQETSDAARVINLATQQQRTATEQVVASMAEIEDVTRQTTQASKQATGAAAELTQLAGRLAELIKRFKAD
notes: FrzCD of Myxococcus xanthus with the HAMP1 domain (H1, residues 31 to 83) deleted; The limits of the deletion are the printed limits of the domain; The tag is that of the pHis17 constructs; source: E. coli (BL21-AI, BL21-DE3 or C43), purified (HisTrap, ion exchange)
With B2, the “stoichiometry N” value in series [5] stood at 4.

B3: FrzCD full-length (receptor, Myxococcus xanthus, UniProt P43500 1-417, looked up)
chain: MSLDTPNEKPAGKARARKAPASKAGATNAASTSSSTKAITDTLLTVLSGNLQARVPKELVGESGVELAHLLNQVLDQFAASEHRKHVAAQEIDQALDALIGLVREGDLSRWNTTTEDPQLGPLLEGFGKVIETLRTFVREINEAALRLSSSANQVLAASTQHETSSTEQAAAIHETTATMEELKHASAQIAENAGSVARVAEETLGAARAGRGAIGEFIQAMQQIRSDGVAVADSIAKLSKRVERIGTVVEVIDEIADRSDLLALNAALEGSRAGEAGKGFSIVAAEMRRLAENVLDSTKEIKNLITEIREATAAAAGAAEASKSATESGEKLGAVAAQAVEGILAGVQETSDAARVINLATQQQRTATEQVVASMAEIEDVTRQTTQASKQATGAAAELTQLAGRLAELIKRFKAD
notes: FrzCD, cytoplasmic methyl-accepting chemotaxis protein of Myxococcus xanthus; DB 1-30, H1 31-83, H2 84-136, MA 137-417; The C-terminal hexa-histidine tag is that of the pHis17 constructs; also called His6-FrzCD; wild type; source: E. coli (BL21-AI, BL21-DE3 or C43), purified (HisTrap, ion exchange)
Turning to B3, the “stoichiometry N” value in series [5] came to 2.

B4: 35 bp DNA (dsDNA)
DNA 1: GTCACCTGCTCTAGCTAATAGACTGAGCCGAGGTG
DNA 2: CACCTCGGCTCAGTCTATTAGCTAGAGCAGGTGAC
As to B4, the binding result in the series with FrzCD (EMSA/SEC-MALS) [6], with FrzCDΔH2 (EMSA/SEC-MALS), with FrzCDΔH1ΔH2 (EMSA) and with FrzCDΔH1 (EMSA) was “binds” each time.
For the molecule AAAAAAAA (ssDNA) [8-base poly-A ssDNA], in the series with FrzCD (EMSA/SEC-MALS) [7], the binding result was “binds”.

B5: 8 bp DNA (dsDNA)
DNA 1: ACTGCAGT
DNA 2: ACTGCAGT
Consider B5, for which the binding result with FrzCD (EMSA/SEC-MALS) [7] (blunt) is “binds”.
